Experiment: yeast display, Sf9 membrane polyspecificity reagent, FACS + sequencing; frameworks hold sequencing errors
How it was run: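 Nanobodies from a synthetic yeast display library (Saccharomyces cerevisiae BJ5465), induced 36–48 hours with galactose, were stained 1 hour at 4 °C with 10% biotinylated, detergent-solubilized Sf9 membrane reagent, enriched on streptavidin microbeads, then FACS-sorted. Anti-HA (expression) and streptavidin (reagent binding) fluorescence set low and high (top ~1%) gates. Polyreactivity labels come from the gate of origin. Genes were colony-PCR amplified, MiSeq 2 × 250 sequenced and filtered by CDR length.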

| Sequence | polyreactivity (PSR sort gate) |
| --- | --- |
| QVQLVESGGGLVQAGGSLRLSCAASGSIYSYTMGWYRQAPGKEREFVAAITYSGDSTYYADSVKGRFTISRDNEKNTVYLQMNSLTPEDTAVYDCAAAGGRGSYYRLDYWGQGTQVTVSS | low polyreactivity |
| QVQLVESGGGLVQAGGSLRLSCAASGSIYTPNVMGWYRQAPGKERELVAAISQSGGSTFYADSVKGRFTISRDNAKNTVYLQMNSLKPEDTAVYYCATEYYGPVYDLDYDYWGQGTQVTVSS | low polyreactivity |
| QVQLVESGGGLVQAGGSLRLSCAASGSIYYGYAMGWYRQAPGKERELVAAISSSGGSTYYADSVKGRFTISRDNAKNTVYLQMNSLKPEDTAVYYCAATRRKAYLYPSDYWGQGTQVTVSS | high polyreactivity |
| QVQLVESGGGLVQAGGSLRLSCAASGSIYYHNAMGWYRQAPGKERELVAAITGSGGSTYYADSVKGRFTISRDNAKNTVYLQMNSLKPEDTAVYYCAADGYTKWWISWGYDYWGQGTQVTVSS | low polyreactivity |
| QVQLVESGGGLVQAGGSLRLSCAASGSIYYNAMGWYRQAPGKERELVASISTGDSTDYADSVKGRFTISRDNAKNTVYLQMNSLKPEDTAVYYCAAVTRLGYWDDYWGQGTQVTVSS | low polyreactivity |
| QVQLVESGGGLVQAGGSLRLSCAASGSIYYYAMGWYRQAPGKERELVAVITSRGGSTNYADSVKGRFTISRDNAKNTVYLQMNSLKPQDTAVYYCNADYYRYYSITYGGDYWGQGTQVTVSS | high polyreactivity |
| QVQLVESGGGLVQAGGSLRLSCAASGSLFDHYAMGWYRQEPGTERELVARISWSGGSTYYADSVKGRFTISRDNAKNTVYLQMNRLKPEDTAVYYCARAGRSWDTLYKYYLEHDYWGQGTQVTVSS | low polyreactivity |
| QVQLVESGGGLVQAGGSLRLSCAASGSLYFAYAMGWYRQAPGKEREFVAAISASGGSTSYADSVKGRFTISRDNAKNTVYLQMNSLKPEDTAVYYCATEHRVTTYDYWGQGTQVTVSS | low polyreactivity |
| QVQLVESGGGLVQAGGSLRLSCAASGSMFEGYAMGRYLQAPGKVRELVAAMTWSSGSTYYADSVKGRFTISRDNAKNTVYLQMNSLKPEETAVYSCAVDGGDFSSYGYWGQGTQVTVSS | low polyreactivity |
| QVQLVESGGGLVQAGGSLRLSCAASGSMFKNNAMGWYRQAPGKARELVAAISRSGGSTYYADSVKGRFTISRDNAKNTVYLPMNSLKPEDTAVYYCARDVDTHYPYAYDYWGQGTQVTVSS | high polyreactivity |
| QVQLVESGGGLVQAGGSLRLSCAASGSNFAINAMGWYRQAPGKERELVAAITRTASTYADSVKGRFTISRDNAKNTVYLQMNSLKPEDTAVYYCNADFAYRYYYWGQGTQVTVSS | low polyreactivity |
| QVQLVESGGGLVQAGGSLRLSCAASGSNFARYAMGWYRQAPGKERELVAAINSTVSTNYADSVNGRFTISRDNPKNTVYLQMNSLKPEDTAVYYCAVDIVRGGRDSWGQGTQVTVSS | low polyreactivity |
| QVQLVESGGGLVQAGGSLRLSCAASGSNFDDNAMGWYRQAPGKERELVAAINSTDITNYADSVKGRFTISRDNAKNTVYLQMTSLKPEDTAVYYCNVDDWGQGTQVTVSS | low polyreactivity |
| QVQLVESGGGLVQAGGSLRLSCAASGSNFDDYGMGWYRQAPGKEREFVATITFGGGTYADSVKGRFTISRDNAKNTVYLQMTSLKPEDTAVYYCAKDWWTYRSSRPSDGTPARDDYWGQGTQVTVSS | low polyreactivity |
| QVQLVESGGGLVQAGGSLRLSCAASGSNFDYYAMGWYRQAPGKERELVAAIRVSGGSTYYADSVKGRFTISRDNAKNTVYLQMNSLKPEDTAVCYCASSYYDFNYEYYYWGQGTQVTVSS | high polyreactivity |
| QVQLVESGGGLVQAGGSLRLSCAASGSNFGANAMGWYRQAPGKEREFVAAISGSGTTTYYADSVKGRFTISRDNAKNTVYLQMNSLKPEDTAVYYCAKTRKAHWLGYWGQGTQVTVSS | low polyreactivity |
| QVQLVESGGGLVQAGGSLRLSCAASGSNFGWYTMGWYRQAPGKERELVAAITSRGTRTSYADSVKGRFTISRDYAKNTVYLQMNSLKPEDTAVYYCAARVFRGLGEYYWGQGTQVTVSS | high polyreactivity |

— the nanobody polyreactivity screen of Harvey et al. (2022)
